# According to PMC7277749, “Evaluation of Aptamers as Affinity Reagents for an Enhancement of SRM-Based Detection of Low-Abundance Proteins in Blood Plasma”:
# Target: SMAD4 (rSMAD4) (UniProt Q13485 1-552)
# Test: MST; 100 nM aptamer; FAM label inferred for MST; MST: 20 mM Tris-HCl pH 7.4, 5 mM KCl, 500 mM NaCl, temperature not stated; pull-down: plasma diluted twice with 10 mM Tris-HCl pH 7.4, 150 mM NaCl plus 0.85 M NaCl, RT, 30 min
# Conditions: protein: recombinant; tags: N-terminal His6; label: 3'-FAM; hairpin, 16 bp stem, TTTT loop, 3' A5 tail
# Chain of SMAD4 (rSMAD4) (Q13485 whole entry): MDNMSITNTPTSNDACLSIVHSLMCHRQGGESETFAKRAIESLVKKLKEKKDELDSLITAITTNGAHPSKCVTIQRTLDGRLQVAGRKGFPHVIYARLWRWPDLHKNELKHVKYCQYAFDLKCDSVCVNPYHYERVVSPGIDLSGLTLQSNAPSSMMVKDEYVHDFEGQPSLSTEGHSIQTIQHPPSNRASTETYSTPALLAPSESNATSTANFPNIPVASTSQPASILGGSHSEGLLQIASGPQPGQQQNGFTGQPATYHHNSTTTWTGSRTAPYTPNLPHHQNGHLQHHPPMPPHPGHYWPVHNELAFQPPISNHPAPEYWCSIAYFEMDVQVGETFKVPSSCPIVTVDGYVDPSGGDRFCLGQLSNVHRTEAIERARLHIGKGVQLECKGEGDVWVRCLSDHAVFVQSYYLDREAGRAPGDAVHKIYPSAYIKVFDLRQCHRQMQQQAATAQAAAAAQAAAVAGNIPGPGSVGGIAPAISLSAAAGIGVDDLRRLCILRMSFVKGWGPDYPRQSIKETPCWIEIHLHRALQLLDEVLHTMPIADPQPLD
binder,measurement,value
"CGAAGTCTAGACAGCGTTTTCGCTGTCTAGACTTCGAAAAA (structured_DNA) [Anti-SMAD4 aptamer, 3'-FAM]",Kd,45 ± 7 nM
